Measurements taken from patent US20200024322A1 (Eli Lilly, published 2020).
Numbered stars: 1 amine (or outer) side, 2 acyl side, 3 side chain; on linkers, the order of the positions; unused ones are H or OH. Square brackets hold non-standard residues; d marks the D form. Side chains are listed from the residue outwards. Ends that are not written are not given here. * marks the point of attachment. C20 diacid = O=C(O)CCCCCCCCCCCCCCCCCCC(=O)*; γGlu = O=C(O)[C@H](CCC(=O)[*:2])N[*:1]; AEEA = NCCOCCOCC(=O)O; Aib = CC(C)(N)C(=O)O

T1: human GIP receptor (human, UniProt P48546 22-466)
T1 construct: whole, on cells; Used as crude membranes of stably transfected CHO cells; also called hGIPR
T1 sequence (looked up): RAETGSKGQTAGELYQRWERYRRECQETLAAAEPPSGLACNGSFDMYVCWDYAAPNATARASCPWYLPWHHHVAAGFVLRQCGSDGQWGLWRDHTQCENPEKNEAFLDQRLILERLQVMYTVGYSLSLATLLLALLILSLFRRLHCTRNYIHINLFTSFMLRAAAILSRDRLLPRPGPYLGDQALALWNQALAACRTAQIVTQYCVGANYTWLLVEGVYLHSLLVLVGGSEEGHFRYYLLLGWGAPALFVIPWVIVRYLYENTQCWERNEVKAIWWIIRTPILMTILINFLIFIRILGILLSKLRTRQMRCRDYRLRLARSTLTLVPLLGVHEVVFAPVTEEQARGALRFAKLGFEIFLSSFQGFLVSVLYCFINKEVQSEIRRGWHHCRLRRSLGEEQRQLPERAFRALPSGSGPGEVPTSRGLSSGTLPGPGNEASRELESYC

B1: Example 32 (peptide)
peptide: Y[Aib]EGTFTSDYSILLDKIAQ[Aib]K([AEEA-AEEA-γGlu-C20 diacid])FIEYLIEGGPSSGAPPPS-NH2
modifications: N-terminus assumed
SMILES: CC[C@H](C)[C@H](NC(=O)[C@H](CCCCN)NC(=O)[C@H](CC(=O)O)NC(=O)[C@H](CC(C)C)NC(=O)[C@H](CC(C)C)NC(=O)[C@@H](NC(=O)[C@H](CO)NC(=O)[C@H](Cc1ccc(O)cc1)NC(=O)[C@H](CC(=O)O)NC(=O)[C@H](CO)NC(=O)[C@@H](NC(=O)[C@H](Cc1ccccc1)NC(=O)[C@@H](NC(=O)CNC(=O)[C@H](CCC(=O)O)NC(=O)C(C)(C)NC(=O)[C@@H](N)Cc1ccc(O)cc1)[C@@H](C)O)[C@@H](C)O)[C@@H](C)CC)C(=O)N[C@@H](C)C(=O)N[C@@H](CCC(N)=O)C(=O)NC(C)(C)C(=O)N[C@@H](CCCCNC(=O)COCCOCCNC(=O)COCCOCCNC(=O)CC[C@H](NC(=O)CCCCCCCCCCCCCCCCCCC(=O)O)C(=O)O)C(=O)N[C@@H](Cc1ccccc1)C(=O)N[C@H](C(=O)N[C@@H](CCC(=O)O)C(=O)N[C@@H](Cc1ccc(O)cc1)C(=O)N[C@@H](CC(C)C)C(=O)N[C@H](C(=O)N[C@@H](CCC(=O)O)C(=O)NCC(=O)NCC(=O)N1CCC[C@H]1C(=O)N[C@@H](CO)C(=O)N[C@@H](CO)C(=O)NCC(=O)N[C@@H](C)C(=O)N1CCC[C@H]1C(=O)N1CCC[C@H]1C(=O)N1CCC[C@H]1C(=O)N[C@@H](CO)C(N)=O)[C@@H](C)CC)[C@@H](C)CC
B2: Example 39 (peptide)
peptide: Y[Aib]EGTFTSDYSILLDKIAQ[Aib]AFIEYLIEGK([AEEA-AEEA-γGlu-C20 diacid])PSSGAPPPS-NH2
modifications: N-terminus assumed
SMILES: CC[C@H](C)[C@H](NC(=O)[C@H](CCCCN)NC(=O)[C@H](CC(=O)O)NC(=O)[C@H](CC(C)C)NC(=O)[C@H](CC(C)C)NC(=O)[C@@H](NC(=O)[C@H](CO)NC(=O)[C@H](Cc1ccc(O)cc1)NC(=O)[C@H](CC(=O)O)NC(=O)[C@H](CO)NC(=O)[C@@H](NC(=O)[C@H](Cc1ccccc1)NC(=O)[C@@H](NC(=O)CNC(=O)[C@H](CCC(=O)O)NC(=O)C(C)(C)NC(=O)[C@@H](N)Cc1ccc(O)cc1)[C@@H](C)O)[C@@H](C)O)[C@@H](C)CC)C(=O)N[C@@H](C)C(=O)N[C@@H](CCC(N)=O)C(=O)NC(C)(C)C(=O)N[C@@H](C)C(=O)N[C@@H](Cc1ccccc1)C(=O)N[C@H](C(=O)N[C@@H](CCC(=O)O)C(=O)N[C@@H](Cc1ccc(O)cc1)C(=O)N[C@@H](CC(C)C)C(=O)N[C@H](C(=O)N[C@@H](CCC(=O)O)C(=O)NCC(=O)N[C@@H](CCCCNC(=O)COCCOCCNC(=O)COCCOCCNC(=O)CC[C@H](NC(=O)CCCCCCCCCCCCCCCCCCC(=O)O)C(=O)O)C(=O)N1CCC[C@H]1C(=O)N[C@@H](CO)C(=O)N[C@@H](CO)C(=O)NCC(=O)N[C@@H](C)C(=O)N1CCC[C@H]1C(=O)N1CCC[C@H]1C(=O)N1CCC[C@H]1C(=O)N[C@@H](CO)C(N)=O)[C@@H](C)CC)[C@@H](C)CC
B3: Example 40 (peptide)
peptide: Y[Aib]EGTFTSDYSILLDKIAQ[Aib]AFIEYLIEGGK([AEEA-AEEA-γGlu-C20 diacid])SSGAPPPS-NH2
modifications: N-terminus assumed
SMILES: CC[C@H](C)[C@H](NC(=O)[C@H](CCCCN)NC(=O)[C@H](CC(=O)O)NC(=O)[C@H](CC(C)C)NC(=O)[C@H](CC(C)C)NC(=O)[C@@H](NC(=O)[C@H](CO)NC(=O)[C@H](Cc1ccc(O)cc1)NC(=O)[C@H](CC(=O)O)NC(=O)[C@H](CO)NC(=O)[C@@H](NC(=O)[C@H](Cc1ccccc1)NC(=O)[C@@H](NC(=O)CNC(=O)[C@H](CCC(=O)O)NC(=O)C(C)(C)NC(=O)[C@@H](N)Cc1ccc(O)cc1)[C@@H](C)O)[C@@H](C)O)[C@@H](C)CC)C(=O)N[C@@H](C)C(=O)N[C@@H](CCC(N)=O)C(=O)NC(C)(C)C(=O)N[C@@H](C)C(=O)N[C@@H](Cc1ccccc1)C(=O)N[C@H](C(=O)N[C@@H](CCC(=O)O)C(=O)N[C@@H](Cc1ccc(O)cc1)C(=O)N[C@@H](CC(C)C)C(=O)N[C@H](C(=O)N[C@@H](CCC(=O)O)C(=O)NCC(=O)NCC(=O)N[C@@H](CCCCNC(=O)COCCOCCNC(=O)COCCOCCNC(=O)CC[C@H](NC(=O)CCCCCCCCCCCCCCCCCCC(=O)O)C(=O)O)C(=O)N[C@@H](CO)C(=O)N[C@@H](CO)C(=O)NCC(=O)N[C@@H](C)C(=O)N1CCC[C@H]1C(=O)N1CCC[C@H]1C(=O)N1CCC[C@H]1C(=O)N[C@@H](CO)C(N)=O)[C@@H](C)CC)[C@@H](C)CC
B4: Example 36 (peptide)
peptide: Y[Aib]EGTFTSDYSILLDKIAQ[Aib]AFIEYLK([AEEA-AEEA-γGlu-C20 diacid])EGGPSSGAPPPS-NH2
modifications: N-terminus assumed
SMILES: CC[C@H](C)[C@H](NC(=O)[C@H](CCCCN)NC(=O)[C@H](CC(=O)O)NC(=O)[C@H](CC(C)C)NC(=O)[C@H](CC(C)C)NC(=O)[C@@H](NC(=O)[C@H](CO)NC(=O)[C@H](Cc1ccc(O)cc1)NC(=O)[C@H](CC(=O)O)NC(=O)[C@H](CO)NC(=O)[C@@H](NC(=O)[C@H](Cc1ccccc1)NC(=O)[C@@H](NC(=O)CNC(=O)[C@H](CCC(=O)O)NC(=O)C(C)(C)NC(=O)[C@@H](N)Cc1ccc(O)cc1)[C@@H](C)O)[C@@H](C)O)[C@@H](C)CC)C(=O)N[C@@H](C)C(=O)N[C@@H](CCC(N)=O)C(=O)NC(C)(C)C(=O)N[C@@H](C)C(=O)N[C@@H](Cc1ccccc1)C(=O)N[C@H](C(=O)N[C@@H](CCC(=O)O)C(=O)N[C@@H](Cc1ccc(O)cc1)C(=O)N[C@@H](CC(C)C)C(=O)N[C@@H](CCCCNC(=O)COCCOCCNC(=O)COCCOCCNC(=O)CC[C@H](NC(=O)CCCCCCCCCCCCCCCCCCC(=O)O)C(=O)O)C(=O)N[C@@H](CCC(=O)O)C(=O)NCC(=O)NCC(=O)N1CCC[C@H]1C(=O)N[C@@H](CO)C(=O)N[C@@H](CO)C(=O)NCC(=O)N[C@@H](C)C(=O)N1CCC[C@H]1C(=O)N1CCC[C@H]1C(=O)N1CCC[C@H]1C(=O)N[C@@H](CO)C(N)=O)[C@@H](C)CC
B5: Example 37 (peptide)
peptide: Y[Aib]EGTFTSDYSILLDKIAQ[Aib]AFIEYLIK([AEEA-AEEA-γGlu-C20 diacid])GGPSSGAPPPS-NH2
modifications: N-terminus assumed
SMILES: CC[C@H](C)[C@H](NC(=O)[C@H](CCCCN)NC(=O)[C@H](CC(=O)O)NC(=O)[C@H](CC(C)C)NC(=O)[C@H](CC(C)C)NC(=O)[C@@H](NC(=O)[C@H](CO)NC(=O)[C@H](Cc1ccc(O)cc1)NC(=O)[C@H](CC(=O)O)NC(=O)[C@H](CO)NC(=O)[C@@H](NC(=O)[C@H](Cc1ccccc1)NC(=O)[C@@H](NC(=O)CNC(=O)[C@H](CCC(=O)O)NC(=O)C(C)(C)NC(=O)[C@@H](N)Cc1ccc(O)cc1)[C@@H](C)O)[C@@H](C)O)[C@@H](C)CC)C(=O)N[C@@H](C)C(=O)N[C@@H](CCC(N)=O)C(=O)NC(C)(C)C(=O)N[C@@H](C)C(=O)N[C@@H](Cc1ccccc1)C(=O)N[C@H](C(=O)N[C@@H](CCC(=O)O)C(=O)N[C@@H](Cc1ccc(O)cc1)C(=O)N[C@@H](CC(C)C)C(=O)N[C@H](C(=O)N[C@@H](CCCCNC(=O)COCCOCCNC(=O)COCCOCCNC(=O)CC[C@H](NC(=O)CCCCCCCCCCCCCCCCCCC(=O)O)C(=O)O)C(=O)NCC(=O)NCC(=O)N1CCC[C@H]1C(=O)N[C@@H](CO)C(=O)N[C@@H](CO)C(=O)NCC(=O)N[C@@H](C)C(=O)N1CCC[C@H]1C(=O)N1CCC[C@H]1C(=O)N1CCC[C@H]1C(=O)N[C@@H](CO)C(N)=O)[C@@H](C)CC)[C@@H](C)CC
B6: Example 34 (peptide)
peptide: Y[Aib]EGTFTSDYSILLDKIAQ[Aib]AFIK([AEEA-AEEA-γGlu-C20 diacid])YLIEGGPSSGAPPPS-NH2
modifications: N-terminus assumed
SMILES: CC[C@H](C)[C@H](NC(=O)[C@H](CCCCN)NC(=O)[C@H](CC(=O)O)NC(=O)[C@H](CC(C)C)NC(=O)[C@H](CC(C)C)NC(=O)[C@@H](NC(=O)[C@H](CO)NC(=O)[C@H](Cc1ccc(O)cc1)NC(=O)[C@H](CC(=O)O)NC(=O)[C@H](CO)NC(=O)[C@@H](NC(=O)[C@H](Cc1ccccc1)NC(=O)[C@@H](NC(=O)CNC(=O)[C@H](CCC(=O)O)NC(=O)C(C)(C)NC(=O)[C@@H](N)Cc1ccc(O)cc1)[C@@H](C)O)[C@@H](C)O)[C@@H](C)CC)C(=O)N[C@@H](C)C(=O)N[C@@H](CCC(N)=O)C(=O)NC(C)(C)C(=O)N[C@@H](C)C(=O)N[C@@H](Cc1ccccc1)C(=O)N[C@H](C(=O)N[C@@H](CCCCNC(=O)COCCOCCNC(=O)COCCOCCNC(=O)CC[C@H](NC(=O)CCCCCCCCCCCCCCCCCCC(=O)O)C(=O)O)C(=O)N[C@@H](Cc1ccc(O)cc1)C(=O)N[C@@H](CC(C)C)C(=O)N[C@H](C(=O)N[C@@H](CCC(=O)O)C(=O)NCC(=O)NCC(=O)N1CCC[C@H]1C(=O)N[C@@H](CO)C(=O)N[C@@H](CO)C(=O)NCC(=O)N[C@@H](C)C(=O)N1CCC[C@H]1C(=O)N1CCC[C@H]1C(=O)N1CCC[C@H]1C(=O)N[C@@H](CO)C(N)=O)[C@@H](C)CC)[C@@H](C)CC

Tests used:
human GIP receptor = molecular target: T1, human GIP receptor; test: SPA, [125I]-GIP displacement, hGIPR membranes
human glucagon receptor = molecular target: T2, human glucagon receptor (human, UniProt P47871 26-477); test: SPA, [125I]-Gcg displacement, hGcgR membranes
T2 construct: whole, on cells; Used as crude membranes of stably transfected HEK293 cells; also called hGcgR; hGLcgR

human GLP-1 receptor = molecular target: T3, human GLP-1 receptor (human, UniProt P43220 24-463); test: SPA, [125I]-GLP-1 displacement, hGLP-1R membranes
T3 construct: whole, on cells; Used as crude membranes of stably transfected HEK293 cells; also called hGLP1R; hGLP-1R

T2 sequence (P47871 26-477): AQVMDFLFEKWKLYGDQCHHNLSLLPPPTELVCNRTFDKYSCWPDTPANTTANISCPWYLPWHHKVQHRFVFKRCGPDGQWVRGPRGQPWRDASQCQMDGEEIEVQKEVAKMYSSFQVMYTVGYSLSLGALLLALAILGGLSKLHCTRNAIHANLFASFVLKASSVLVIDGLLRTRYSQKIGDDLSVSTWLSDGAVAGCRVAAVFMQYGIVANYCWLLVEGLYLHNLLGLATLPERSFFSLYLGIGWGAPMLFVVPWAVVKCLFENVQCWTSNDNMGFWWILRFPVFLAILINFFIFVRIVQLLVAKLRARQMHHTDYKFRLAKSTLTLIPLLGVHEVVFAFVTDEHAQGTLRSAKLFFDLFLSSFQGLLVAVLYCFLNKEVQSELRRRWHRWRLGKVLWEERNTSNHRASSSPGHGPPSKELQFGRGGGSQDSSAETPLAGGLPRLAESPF

| Binder | Ki (human GIP receptor) | Ki (human glucagon receptor) | Ki (human GLP-1 receptor) |
| --- | --- | --- | --- |
| B1 | 0.0205 nM | 44.7 nM | 3.96 nM |
| B2 | 0.0499 nM | 161 nM | 16.8 nM |
| B3 | 0.0345 nM | 150 nM | 7.56 nM |
| B4 | 0.141 nM | 413 nM | 16.4 nM |
| B5 | 0.0523 nM | 255 nM | 3.84 nM |
| B6 | 0.0467 nM | 134 nM | 3.41 nM |
